The results in this text go back to US20150344570A1 (published 2015).

For assay [1], the target named is T1, FcgRIIb (human, UniProt P31994 43-217).
T1 construct: extracellular domain; also called FcγRIIb; 2b; not shown: His tag at the C terminus
T1 sequence (looked up): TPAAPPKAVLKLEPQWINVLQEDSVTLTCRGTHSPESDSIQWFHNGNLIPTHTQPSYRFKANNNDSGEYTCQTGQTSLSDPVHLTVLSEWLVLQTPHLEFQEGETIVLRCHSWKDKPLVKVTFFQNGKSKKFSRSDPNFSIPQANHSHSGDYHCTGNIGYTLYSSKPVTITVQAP
Briefly: SPR (Biacore); KD of H240-Kn033/H240-Hl033/L73-k0 divided by KD of the variant. A general note: SPR reads the build-up and loss of mass on a sensor chip optically.

In assay [2] the target is T2, FcgRIIaH (human, UniProt P12318 34-217).
T2 construct: extracellular domain; also called FcγRIIa H; FcγRIIa type H; not shown: His tag at the C terminus
T2 sequence (looked up): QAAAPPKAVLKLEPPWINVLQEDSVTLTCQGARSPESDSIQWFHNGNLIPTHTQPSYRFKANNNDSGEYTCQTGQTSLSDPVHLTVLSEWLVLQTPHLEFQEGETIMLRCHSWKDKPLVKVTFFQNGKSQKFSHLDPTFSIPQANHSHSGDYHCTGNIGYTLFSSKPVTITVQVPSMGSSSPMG
Described as above.

For assay [3], the target named is T3, FcgRIIaR (human, UniProt P12318 34-217).
T3 construct: extracellular domain; also called FcγRIIa R; FcγRIIa type R; not shown: His tag at the C terminus
T3 sequence (looked up): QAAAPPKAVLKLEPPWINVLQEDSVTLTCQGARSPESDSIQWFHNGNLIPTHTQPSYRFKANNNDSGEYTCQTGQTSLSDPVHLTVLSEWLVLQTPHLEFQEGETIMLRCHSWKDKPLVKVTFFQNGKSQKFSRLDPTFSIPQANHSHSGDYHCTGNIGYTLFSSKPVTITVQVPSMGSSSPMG
The description is as above.

In assay [4] the target is T4, FcgRIIIaF (human, UniProt P08637 17-208).
T4 construct: extracellular domain; Polymorphic site after J. Clin. Invest; also called FcγRIIIa F; 3aF; not shown: His tag at the C terminus
T4 sequence (P08637 17-208): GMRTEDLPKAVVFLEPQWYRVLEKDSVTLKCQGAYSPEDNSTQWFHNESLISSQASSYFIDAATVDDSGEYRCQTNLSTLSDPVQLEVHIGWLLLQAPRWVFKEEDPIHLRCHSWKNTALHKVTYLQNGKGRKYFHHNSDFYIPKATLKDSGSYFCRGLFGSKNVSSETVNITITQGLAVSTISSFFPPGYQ
The assay is described as above.

For assay [5], the target named is T5, FcgRIIIaV (human, UniProt P08637 17-208).
T5 construct: extracellular domain; Polymorphic site after J. Clin. Invest; also called FcγRIIIa V; 3aV; not shown: His tag at the C terminus
T5 sequence (P08637 17-208 F176V limits assumed): as the sequence (P08637 17-208) above, with F160V counted along it
Described as above.

Assay [6] deals with T1, FcgRIIb. Briefly: SPR (Biacore), antibody captured, FcgR extracellular domain as analyte. As to the method:
(§1) Next, the amino acid at position 330 was examined. The A330M alteration has been introduced into H240-Hl076 of H240-Kn125/H240-Hl076/L73-k0. […] L73-k0 was used as the common antibody L chain. Binding of the produced variants to FcgRIa, FcgRIIaR, FcgRIIaH, FcgRIIb, FcgRIIIaF, and FcgRIIIaV was measured according to the method of Reference Example 8.
(§2) Analysis of interaction between objective antibody and the FcγR was carried out using Biacore T100 (GE Healthcare), Biacore T200, Biacore A100, and Biacore 4000. HBS-EP+ (GE Healthcare) was used as the running buffer, and the measurement temperature was set to 25° C. Chips produced by immobilizing the antigen peptide by the amine coupling method to a Series S sensor Chip CM5 (GE Healthcare), chips produced by allowing preliminarily biotinylated antigen peptides to interact with and immobilize onto a Series S Sensor Chip SA (certified) (GE Healthcare), chips produced by immobilizing Protein L (ACTIGEN, BioVision) to Series S Sencor Chip CM5 (GE Healthcare), or chips produced by immobilizing Protein A/G (Thermo Scientific) to Series S Sencor Chip CM5 (GE Healthcare) were used. Antibodies of interest were captured onto these chips, and allowed to interact to each FcγR diluted with running buffer. To regenerate and repeatedly use the chip, the antibodies captured onto the chip were washed off by reacting 10 mM glycine-HCl, pH 1.5.

For assay [7], the target named is T2, FcgRIIaH. The assay is described as above. As to the method: as §1, §2
The target in assay [8] is T6, FcgRIa (human, UniProt P12314 16-292).
T6 construct: extracellular domain; also called FcγRIa; FcγRI; not shown: His tag at the C terminus
T6 sequence (P12314 16-292): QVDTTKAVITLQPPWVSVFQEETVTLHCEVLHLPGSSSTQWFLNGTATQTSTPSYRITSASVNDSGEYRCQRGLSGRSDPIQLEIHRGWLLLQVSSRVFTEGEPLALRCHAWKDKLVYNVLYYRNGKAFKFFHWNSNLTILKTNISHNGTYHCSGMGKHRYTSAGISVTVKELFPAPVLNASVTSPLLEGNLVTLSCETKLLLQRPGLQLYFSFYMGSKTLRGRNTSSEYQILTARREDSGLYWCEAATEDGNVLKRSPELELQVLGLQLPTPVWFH
The assay is described as above. As for the experimental part: as §1, §2

For assay [9], the target named is T3, FcgRIIaR. Described as above. As to the method: as §1, §2
Assay [10] deals with T4, FcgRIIIaF. The assay is described as above. As for the experimental part:
as §1, §2

Assay [11] deals with T5, FcgRIIIaV. The assay is described as above. As for the experimental part: as §1, §2

By Kd is commonly meant the constant that tells how readily two partners part at equilibrium. Low readings indicate a tighter complex, high ones a looser complex.

B1: H240-Kn125/H240-Hl214/L73-k0 (antibody, human IgG1, kappa)
heavy 1: QDQLVQSGAEVKKPGASVKVSCKASGFNIKDTYIQWVRQAPGQGLEWMGRIDPLRKQTKYREKFEGRVTITADTSTNTAYMELSSLRSEDTAVYYCVRSGREFDYWGQGTLVTVSSASTKGPSVFPLAPSSKSTSGGTAALGCLVKDYFPEPVTVSWNSGALTSGVHTFPAVLQSSGLYSLSSVVTVPSSSLGTQTYICNVNHKPSNTKVDKKVEPKSCDKTHTCPPCPAPEYQWGPMVFLFPPKPKDTLMISRTPEVTCVVVDVSDEEPEVKFNWYVDGVEVHNAKTKPREEQYNATYRVVSVLTVLHQDWLNGKEYKCKVSNKALPAPIEKTISKAKGQPREPQVCTLPPSRDELTKNQVSLWCLVKGFYPSDIAVEWESNGQPENNYKTTPPVLDSDGSFFLYSKLTVDKSRWQQGNVFSCSVMHEALHNHYTQKSLSLSP
heavy 2: QDQLVQSGAEVKKPGASVKVSCKASGFNIKDTYIQWVRQAPGQGLEWMGRIDPLRKQTKYREKFEGRVTITADTSTNTAYMELSSLRSEDTAVYYCVRSGREFDYWGQGTLVTVSSASTKGPSVFPLAPSSKSTSGGTAALGCLVKDYFPEPVTVSWNSGALTSGVHTFPAVLQSSGLYSLSSVVTVPSSSLGTQTYICNVNHKPSNTKVDKKVEPKSCDKTHTCPPCPAPELLGGPSVFLFPPKPKDTLMISRTPEVTCVVVDVSHEEPEVKFNWYVDGVEVHNAKTKPREEQYNSTYRVVSVLTVLHQDWLNGKEYKCKVSNDALPFPIEETISKAKGQPREPQVYTLPPSRCELTKNQVSLSCAVKGFYPSDIAVEWESNGQPENNYKTTPPVLDSDGSFFLVSKLTVDKSRWQQGNVFSCSVMHEALHNHYTQKSLSLSP
light: DIQMTQSPSSLSASVGDRVTITCRASQDIHKYIAWYQQKPGQAPRLLIQYTSTLQPGVPSRFSGSGSGTDYTFTISSLQPEDIATYYCLQYEQLRTFGGGTKVEIKRTVAAPSVFIFPPSDEQLKSGTASVVCLLNNFYPREAKVQWKVDNALQSGNSQESVTEQDSKDSTYSLSSTLTLSKADYEKHKVYACEVTHQGLSSPVTKSFNRGEC
In the case of B1, in [1], the “fold 2b” value was determined as 0.8 fold. Moreover, the “fold 2aH” value in [2] is 3.5 fold. The “fold 2aR” value in [3] was determined as 1.6 fold. Besides, the “fold 3aF” value in assay [4] stood at 181 fold. Further, the “fold 3aV” value in assay [5] is 126 fold. Besides, the Kd came to 4.4 µM in assay [6]; 150 nM in assay [7]; 0.08 nM in assay [8]; 450 nM in assay [9]; 1.6 nM in [10]; 0.38 nM in assay [11].

B2: H240-Kn125/H240-Hl217/L73-k0 (antibody, human IgG1, kappa)
heavy 1: QDQLVQSGAEVKKPGASVKVSCKASGFNIKDTYIQWVRQAPGQGLEWMGRIDPLRKQTKYREKFEGRVTITADTSTNTAYMELSSLRSEDTAVYYCVRSGREFDYWGQGTLVTVSSASTKGPSVFPLAPSSKSTSGGTAALGCLVKDYFPEPVTVSWNSGALTSGVHTFPAVLQSSGLYSLSSVVTVPSSSLGTQTYICNVNHKPSNTKVDKKVEPKSCDKTHTCPPCPAPEYQWGPMVFLFPPKPKDTLMISRTPEVTCVVVDVSDEEPEVKFNWYVDGVEVHNAKTKPREEQYNATYRVVSVLTVLHQDWLNGKEYKCKVSNKALPAPIEKTISKAKGQPREPQVCTLPPSRDELTKNQVSLWCLVKGFYPSDIAVEWESNGQPENNYKTTPPVLDSDGSFFLYSKLTVDKSRWQQGNVFSCSVMHEALHNHYTQKSLSLSP
heavy 2: QDQLVQSGAEVKKPGASVKVSCKASGFNIKDTYIQWVRQAPGQGLEWMGRIDPLRKQTKYREKFEGRVTITADTSTNTAYMELSSLRSEDTAVYYCVRSGREFDYWGQGTLVTVSSASTKGPSVFPLAPSSKSTSGGTAALGCLVKDYFPEPVTVSWNSGALTSGVHTFPAVLQSSGLYSLSSVVTVPSSSLGTQTYICNVNHKPSNTKVDKKVEPKSCDKTHTCPPCPAPELLGGPSVFLFPPKPKDTLMISRTPEVTCVVVDVSHEEPEVKFNWYVDGVEVHNAKTKPREEQYNSTYRVVSVLTVLHQDWLNGKEYKCKVSNDALPYPIEETISKAKGQPREPQVYTLPPSRCELTKNQVSLSCAVKGFYPSDIAVEWESNGQPENNYKTTPPVLDSDGSFFLVSKLTVDKSRWQQGNVFSCSVMHEALHNHYTQKSLSLSP
light: DIQMTQSPSSLSASVGDRVTITCRASQDIHKYIAWYQQKPGQAPRLLIQYTSTLQPGVPSRFSGSGSGTDYTFTISSLQPEDIATYYCLQYEQLRTFGGGTKVEIKRTVAAPSVFIFPPSDEQLKSGTASVVCLLNNFYPREAKVQWKVDNALQSGNSQESVTEQDSKDSTYSLSSTLTLSKADYEKHKVYACEVTHQGLSSPVTKSFNRGEC
As for B2, the “fold 2b” value in [1] came to 0.9 fold. In addition, the “fold 2aH” value in assay [2] worked out at 4 fold. Also, the “fold 2aR” value in assay [3] turned out to be 1.7 fold. Further, the “fold 3aF” value in [4] is 121 fold. For the same molecule, in [5], the “fold 3aV” value amounted to 146 fold. Besides, the Kd in [6] was 3.5 µM; in assay [7] it was 130 nM; in assay [8], 0.076 nM; in [9] it was 440 nM; in [10], 2.4 nM; in assay [11], 0.33 nM.

B3: H240-Kn125/H240-Hl216/L73-k0 (antibody, human IgG1, kappa)
heavy 1: QDQLVQSGAEVKKPGASVKVSCKASGFNIKDTYIQWVRQAPGQGLEWMGRIDPLRKQTKYREKFEGRVTITADTSTNTAYMELSSLRSEDTAVYYCVRSGREFDYWGQGTLVTVSSASTKGPSVFPLAPSSKSTSGGTAALGCLVKDYFPEPVTVSWNSGALTSGVHTFPAVLQSSGLYSLSSVVTVPSSSLGTQTYICNVNHKPSNTKVDKKVEPKSCDKTHTCPPCPAPEYQWGPMVFLFPPKPKDTLMISRTPEVTCVVVDVSDEEPEVKFNWYVDGVEVHNAKTKPREEQYNATYRVVSVLTVLHQDWLNGKEYKCKVSNKALPAPIEKTISKAKGQPREPQVCTLPPSRDELTKNQVSLWCLVKGFYPSDIAVEWESNGQPENNYKTTPPVLDSDGSFFLYSKLTVDKSRWQQGNVFSCSVMHEALHNHYTQKSLSLSP
heavy 2: QDQLVQSGAEVKKPGASVKVSCKASGFNIKDTYIQWVRQAPGQGLEWMGRIDPLRKQTKYREKFEGRVTITADTSTNTAYMELSSLRSEDTAVYYCVRSGREFDYWGQGTLVTVSSASTKGPSVFPLAPSSKSTSGGTAALGCLVKDYFPEPVTVSWNSGALTSGVHTFPAVLQSSGLYSLSSVVTVPSSSLGTQTYICNVNHKPSNTKVDKKVEPKSCDKTHTCPPCPAPELLGGPSVFLFPPKPKDTLMISRTPEVTCVVVDVSHEEPEVKFNWYVDGVEVHNAKTKPREEQYNSTYRVVSVLTVLHQDWLNGKEYKCKVSNDALPIPIEETISKAKGQPREPQVYTLPPSRCELTKNQVSLSCAVKGFYPSDIAVEWESNGQPENNYKTTPPVLDSDGSFFLVSKLTVDKSRWQQGNVFSCSVMHEALHNHYTQKSLSLSP
light: DIQMTQSPSSLSASVGDRVTITCRASQDIHKYIAWYQQKPGQAPRLLIQYTSTLQPGVPSRFSGSGSGTDYTFTISSLQPEDIATYYCLQYEQLRTFGGGTKVEIKRTVAAPSVFIFPPSDEQLKSGTASVVCLLNNFYPREAKVQWKVDNALQSGNSQESVTEQDSKDSTYSLSSTLTLSKADYEKHKVYACEVTHQGLSSPVTKSFNRGEC
For the molecule B3, the “fold 2b” value in assay [1] amounted to 0.4 fold. Besides, in assay [2], the “fold 2aH” value worked out at 2.5 fold. The “fold 2aR” value in assay [3] turned out to be 1 fold. In addition, the “fold 3aF” value in assay [4] is 107 fold. For the same molecule, in assay [5], the “fold 3aV” value was 80 fold. For the same molecule, the Kd was found to be 8.3 µM in [6]; 210 nM in [7]; 0.073 nM in [8]; 770 nM in assay [9]; 2.7 nM in assay [10]; 0.6 nM in [11].
